Series [1] addresses T1, ArntbHLH (Homo sapiens (isoform variant 3), UniProt P27540-2 65-130). In words: fluorescence anisotropy; up to 1 uM monomeric protein; data not shown; Buffer B: 100 mM Tris pH 7.4, 150 mM NaCl, 1 mM EDTA, 200 mM guanidine-HCl, 20% glycerol, 0.1 mg/mL acetylated BSA, 100 uM bp calf thymus DNA; 1 nM duplex; overnight 4 C then 22 C. Buffer C: 100 mM Tris pH 7.4, 150 mM NaCl, 1 mM EDTA, 1.0 ug/mL poly dI-dC. Buffer A: phosphate pH 7.4, 150 mM NaCl, 2.7 mM KCl, 1 mM EDTA, 800 mM urea, 20% glycerol, …. The settings on record: protein: recombinant; chain copies: 2; label: 5' 6-FAM on one strand; 24-mer duplex.

Series [2] deals with T2, ArntbHLH-C/EBP (Homo sapiens (Arnt isoform variant 3) / …, UniProt P27540-2 65-130+=RIR+P05554:317-345, internal_change). Described as above. The settings on record: protein: recombinant; (pET-28A(+), TALON purified); chain copies: 2; label: 5' 6-FAM on one strand; 24-mer duplex.
T2 sequence (P27540 other isoform, or with tags, fused parts or gaps): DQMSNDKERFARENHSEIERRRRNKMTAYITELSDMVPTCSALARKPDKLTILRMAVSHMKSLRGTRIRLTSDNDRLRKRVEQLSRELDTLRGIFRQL
Series [3] addresses T1, ArntbHLH. In words: fluorescence anisotropy; Buffer C (no additives, 1.0 ug/mL poly dI-dC); single isotherm, plateau not reached; Hill ~2; Buffer B: 100 mM Tris pH 7.4, 150 mM NaCl, 1 mM EDTA, 200 mM guanidine-HCl, 20% glycerol, 0.1 mg/mL acetylated BSA, 100 uM bp calf thymus DNA; 1 nM duplex; overnight 4 C then 22 C. Buffer C: 100 mM Tris pH 7.4, 150 mM NaCl, 1 mM EDTA, 1.0 ug/mL poly dI-dC. Buffer A: phosphate pH 7.4, 150 mM NaCl, …. The settings on record: protein: recombinant; chain copies: 2; label: 5' 6-FAM on one strand; 24-mer duplex.

Series [4] concerns the target T2, ArntbHLH-C/EBP. The description is as above. The settings on record: protein: recombinant; (pET-28A(+), TALON purified); chain copies: 2; label: 5' 6-FAM on one strand; 24-mer duplex.

T1 sequence (P27540 other isoform, or with tags, fused parts or gaps): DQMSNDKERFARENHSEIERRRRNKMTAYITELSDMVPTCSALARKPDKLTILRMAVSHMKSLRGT

B1: nonspecific 24-mer duplex (dsDNA)
DNA 1: TGCAGGAATTCCAAGGTGAAGGTT
DNA 2: AACCTTCACCTTGGAATTCCTGCA
As for B1, the binding result with ArntbHLH [1] and in the series with ArntbHLH-C/EBP [2] was “no binding” in each case.

B2: E-box 24-mer duplex (dsDNA)
DNA 1: TGCAGGAATCACGTGATGAAGGTT
DNA 2: AACCTTCATCACGTGATTCCTGCA
Consider B2, for which the Kd with ArntbHLH [3] and with ArntbHLH-C/EBP [4] was ~350 nM each time.

Values taken from article PMC2568859, “Hybrids of the bHLH and bZIP Protein Motifs Display Different DNA-Binding Activities In Vivo vs. In Vitro”.
